Consider 1 molecule from patent US20220195058A1 (Regeneron, published 2022).

For this experiment, the target named is T1, human NPR1 (hNPR1) with a C-term myc and FLAG tag, stably expressed on HEK293 cells (human, UniProt P16066 33-1061).
T1 sequence: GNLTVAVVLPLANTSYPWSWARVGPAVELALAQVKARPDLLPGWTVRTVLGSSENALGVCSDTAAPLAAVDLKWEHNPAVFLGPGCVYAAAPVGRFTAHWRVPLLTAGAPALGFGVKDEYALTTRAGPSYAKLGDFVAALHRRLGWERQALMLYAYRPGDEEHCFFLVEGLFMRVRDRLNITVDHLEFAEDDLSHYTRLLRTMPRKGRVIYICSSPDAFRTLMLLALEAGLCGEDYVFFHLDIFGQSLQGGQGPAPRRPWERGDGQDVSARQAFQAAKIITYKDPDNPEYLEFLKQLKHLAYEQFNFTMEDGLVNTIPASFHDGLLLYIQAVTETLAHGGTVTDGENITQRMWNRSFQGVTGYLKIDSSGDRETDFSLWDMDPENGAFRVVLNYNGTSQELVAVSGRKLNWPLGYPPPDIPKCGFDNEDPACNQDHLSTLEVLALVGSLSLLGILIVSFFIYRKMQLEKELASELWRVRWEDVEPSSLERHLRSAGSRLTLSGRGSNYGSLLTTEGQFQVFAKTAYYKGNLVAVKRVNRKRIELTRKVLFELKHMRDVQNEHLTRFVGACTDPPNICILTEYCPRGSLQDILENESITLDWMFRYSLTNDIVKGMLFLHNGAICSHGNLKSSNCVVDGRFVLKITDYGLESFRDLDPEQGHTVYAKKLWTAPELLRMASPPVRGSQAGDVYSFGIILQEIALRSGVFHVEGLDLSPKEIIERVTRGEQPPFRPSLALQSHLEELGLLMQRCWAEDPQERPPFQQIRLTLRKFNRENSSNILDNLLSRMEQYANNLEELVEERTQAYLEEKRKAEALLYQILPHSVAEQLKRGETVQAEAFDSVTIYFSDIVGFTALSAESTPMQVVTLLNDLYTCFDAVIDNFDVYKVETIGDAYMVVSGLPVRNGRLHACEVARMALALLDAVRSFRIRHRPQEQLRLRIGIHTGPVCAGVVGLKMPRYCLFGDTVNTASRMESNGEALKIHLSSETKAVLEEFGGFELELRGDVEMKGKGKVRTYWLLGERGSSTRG
As to the kind of experiment: cell-based or functional assay.

B1: R5381 (antibody, V domains shown)
VH: QVQLVQSGAEVKKPGASVTVSCKASGYTFTDYYMHWVRQAPGQGLEWMGWIKPNSGGTNSAQRFQGRITMTWDTSISTAYMELSRLRSDDTAVYYCSRGGPVMNYYYYYGMDVWGQGTTVTVSS
VL: NIQMTQSPSSLSASVGDRVTITCRASQSIDSYLNWYQQKPGKAPKLLIYVASSLQSGVPSRFSGSGSGKDFTLTISSLQPEDFATYYCQQSYSIPTFGQGTRLEIKR
As to B1, the “cGMP accumulation (HTRF) EC50, no ligand” value was determined as 31.2 nM; the “cGMP accumulation (HTRF) EC50, with 40 pM ANP” value amounted to 2.07e-08 M; the “cGMP accumulation (HTRF) EC50, with 80 pM BNP” value came out at 1.78e-09 M.
